{"source": "paper PMC8301065", "key": {"[1]": {"molecular_target": "human cardiac muscle wild-type α-actin (recombinant) (human) (UniProt P68032)"}, "[2]": {"molecular_target": "human cardiac α-actin mutant p.A295S (human)"}, "[3]": {"molecular_target": "human cardiac α-actin mutant p.E361G (human)"}, "[4]": {"molecular_target": "human cardiac α-actin mutant p.R312H (human)"}, "[5]": {"molecular_target": "human cardiac muscle wild-type α-actin (recombinant) (human) (UniProt P68032)", "assay": "pyrene-actin polymerization assay; 5 µM c-actin with pyrene-labeled skeletal muscle actin added at 20:1, G-buffer; polymerization induced by 2 mM MgCl2 and 0.1 M KCl; rise of pyrene fluorescence; control without nucleator"}}, "data": [{"substance": "Arp2/3 complex isolated from Acanthameba castellani", "values": [{"measurement": "half time of polymerization (t1/2) of 5 µM c-actin with 50 nM Arp2/3 complex, pyrene-actin assay (control without nucleator 8.6 min)", "setting": "[1]", "result": 2.1, "unit": "min"}, {"measurement": "half time of polymerization (t1/2) of 5 µM c-actin with 50 nM Arp2/3 complex, pyrene-actin assay (control without nucleator 12.2 min)", "setting": "[2]", "result": 1.2, "unit": "min"}, {"measurement": "half time of polymerization (t1/2) of 5 µM c-actin with 50 nM Arp2/3 complex, pyrene-actin assay (control without nucleator 4.0 min)", "setting": "[3]", "result": 1.8, "unit": "min"}, {"measurement": "half time of polymerization (t1/2) of 5 µM c-actin with 50 nM Arp2/3 complex, pyrene-actin assay (control without nucleator 13.8 min)", "setting": "[4]", "result": 1, "unit": "min"}]}, {"substance": "FH2-domain of the formin mDia3 (from UniProt O70566 625-1025) (domain or fragment)", "values": [{"measurement": "half time of polymerization (t1/2) of 5 µM c-actin with 50 nM mDia3-FH2, pyrene-actin assay (control without nucleator 8.6 min)", "setting": "[1]", "result": 6.9, "unit": "min"}, {"measurement": "half time of polymerization (t1/2) of 5 µM c-actin with 50 nM mDia3-FH2, pyrene-actin assay (control without nucleator 12.2 min)", "setting": "[2]", "result": 3.5, "unit": "min"}, {"measurement": "half time of polymerization (t1/2) of 5 µM c-actin with 50 nM mDia3-FH2, pyrene-actin assay (control without nucleator 4.0 min)", "setting": "[3]", "result": 2.9, "unit": "min"}, {"measurement": "half time of polymerization (t1/2) of 5 µM c-actin with 50 nM mDia3-FH2, pyrene-actin assay (control without nucleator 13.8 min)", "setting": "[4]", "result": 4.1, "unit": "min"}]}, {"substance": "human cardiac muscle wild-type α-actin (recombinant) (from UniProt P68032 1-377) (natural protein)", "values": [{"measurement": "half time of polymerization (t1/2)", "setting": "[5]", "result": 8.6, "unit": "min"}]}]}
